Experimental findings from PMC10383791, “Evaluation of [^18F]AlF-EMP-105 for Molecular Imaging of C-Met” (Pharmaceutics, 2023) are described below.

A word on the amount remaining: it is what is left of the initial amount, in per cent. A low value points to more turnover.

A short description of data set [1]: in vitro. To be noted: human, human serum. On the procedure: (§1) Analytical radio-HPLC chromatograms were obtained using an Agilent 1200 series instrument equipped with a flow-ram detector (Lablogic, Sheffield, UK), and integrated using Laura 6 software (Lablogic, Sheffield, UK). Column: phenomenex Aeris^TM 3.6 µm WIDEPORE C4 200 Å. Mobile phase: 0.1% TFA H2O:MeCN 95:5 v/v to 5:95 v/v, 0.8 mL/min flow rate.
(§2) A fraction of purified [^18F]AlF-EMP-105 (10 MBq in ~10 µL EtOH) was incubated, respectively, in 1000 µL of EtOH, PBS, RPMI, human serum and EDTA (0.02% in 0.5 mM DPBS) at 37 °C, and analysed by RP-HPLC at 1, 2, 3, and 4 h time points. For stability towards radiolysis, aliquots of >2 GBq of purified [^18F]AlF-EMP-105 eluted from the cartridge in ethanol (75% in 10 mM H3P0_4) or formulated in PBS solution containing 7.5% ethanol and 5 mg/mL (10 mL) of 4-aminobenzoic acid (PABA) as radioprotectant were analysed by RP-HPLC.

The nature of data set [2]: Radioactive metabolite analysis in tissues by radio-HPLC. To be noted: mouse i.v., mean ± s.d., n = 3. On the procedure:
For metabolite analysis, radio-HPLC chromatograms were obtained using an Agilent 1100 system equipped with an in-line posiRAM metabolite detector (Lablogic, Sheffield, UK). The same column and mobile phase were used.
In female BALB/c mice at 5 and 30 min p.i. of [^18F]AlF-NOTA-EMP-105, four key tissues (blood plasma, liver, kidney and urine) were analysed for radioactive metabolites by radio-HPLC. The retention time of free [^18F]fluoride and the parent compound [^18F]AlF-EMP-105 were determined by injecting a pure sample of each onto the metabolite radio-HPLC system.
The liver and kidneys were excised, and homogenised in ice cold MeCN:H2O (1 mL, 1:2 v/v) using a Precellys tissue homogeniser fitted with a Cryolys cooling module (Stretton Scientific Ltd., Derbyshire, UK). The homogenate was centrifuged (13,000× g, 5 min), the supernatant was removed, filtered (0.22 µm syringe filter) and diluted in water prior to RP-HPLC analysis. Urine was diluted in water and filtered prior to HPLC analysis. Plasma was obtained from whole blood by centrifugation (2000× g, 10 min) to separate the blood cells from the plasma. Plasma were precipitated with ice cold MeCN:H2O (1 mL, 1:2 v/v), and centrifuged (13,000× g, 5 min) to pellet the proteins. The supernatant was filtered and diluted in water for radio-HPLC analysis. The HPLC injection loop was washed with MeCN:H2O 1:1 v/v (1 mL) and then 5:95 v/v (1 mL) between each injection. The extraction efficiency from each tissue sample was determined by counting the activity (counts per minute, CPM) of a small aliquot (20 µL) of the supernatant of a known volume and the whole protein pellet, in a γ-counter.

The conditions of data set [3]: dynamic PET 60 min, TACs, healthy mice, i.v. On the procedure:
Female BALB/c mice (6–8 weeks old) were anaesthetized with 2% isoflurane/O2. Imaging was performed using a Siemens Inveon small-animal multimodality PET/CT system (Siemens Medical Solutions USA, Inc., Knoxville, TN, USA). After completion of the CT scan, [^18F]AlF-EMP-105 (4.6 ± 1.2 MBq) was injected intravenously via the lateral tail vein. Dynamic emission scans were acquired in list-mode format for 60 min. Image data were processed as 0.5 mm sinogram bins and 33 time-frames, and reconstructed using the 2D-ordered subsets expectation maximization (2D-OSEM) algorithm with CT-based attenuation correction. The following frame durations were used: 12 × 5 s, 4 × 15 s, 6 × 30 s, and 11 × 300 s. Images were analysed using Inveon Research Workplace software (Siemens Healthcare Molecular Imaging, Knoxville, TN, USA). PET and CT images were co-registered and used to draw 3-dimensional regions of interests (ROIs) over tissues to obtain time–activity curves (TACs). Decay-corrected tissue time versus radioactivity curves (TACs) were generated and normalized to whole-body activity to obtain normalized uptake values (NUVs).

The test system of data set [4] is OE21. Nature of the data set: In vitro radioactive uptake with and without EMI-137 blocking. It counts as cell-based. As to conditions: ~0.74 MBq, 60 min, 37 °C, gamma counting, mean ± SEM. On the procedure: (§3) H1975 (non-small cell lung cancer), HEPG2a (hepatocellular carcinoma), HT29 (colorectal cancer) were purchased from ATCC. OE21 (oesophageal squamous cell carcinoma) was obtained from Prof George Hanna. H1975 and OE21 cells were maintained in RPMI-1640 media (Sigma-Aldrich) supplemented with 10% fetal calf serum (Sigma-Aldrich), 1% L-glutamine, and 2% penicillin/streptomycin (Sigma-Aldrich). HEPG2a and HT29 cells were cultured in DMEM (Sigma-Aldrich) containing 10% fetal calf serum, 1% L-glutamine, and 2% penicillin/streptomycin. All cell lines were cultured at 37 °C and 5% CO2.
(§4) Cells were seeded at appropriate densities (~500,000 cells/well in a 6-well plate) and allowed to attach overnight. On the day of uptake, cells were washed three times with warm PBS and incubated with 1 mL of fresh media containing approximately 0.74 MBq of [^18F]AlF-EMP-105, with or without 100× molar equivalent of EMI-137 (blocking compound), in a humidified condition with 5% CO2 at 37 °C for 60 min. After 60 min of incubation, the cells were washed with ice-cold PBS (3 times), then lysed in 1 mL of RIPA buffer for 10 min on ice. Following this step, radioactivity from 800 µL of lysate from each sample was counted on a WIZARD2® Automatic Gamma Counter. To determine the specificity of uptake, data were expressed as a percentage of radioactivity incorporated into cells, in untreated cells compared to cells blocked with EMI-137.

The test system of data set [5] is HT29. Described as above. To be noted: ~0.74 MBq, 60 min, 37 °C, gamma counting, mean ± SEM. Format: cell-based. On the procedure: as §3, §4
In data set [6] the test system is H1975. The data set is described as above. It counts as cell-based. To be noted: ~0.74 MBq, 60 min, 37 °C, gamma counting, mean ± SEM. On the procedure: as §3, §4
Data set [7] deals with HEPG2a. Described as above. To be noted: HEPG2a (negative control); ~0.74 MBq, 60 min, 37 °C; gamma counting; mean ± SEM. It counts as cell-based. On the procedure: as §3, §4
Data set [8] is described as follows: physchem. On the procedure: as §1, §2
Data set [9] concerns H1975 cells. As to the kind of experiment: Internalisation assay of EMI-137 by flow cytometry. It counts as cell-based. On the procedure:
as §3
H1975 cells were seeded in a 6-well plate at a seeding density of 500,000 cells/well, 24 h prior to performing internalisation assay. […] Subsequently, cells were washed with ice-cold PBS three times. To determine internalisation levels at 4 °C, surface-bound EMI-137 was removed by washing the cells with 50 mM of glycine prepared in 150 mM NaCl (Sigma) for 5 min followed by three washes with ice-cold PBS. […] Data were presented as mean Fluorescence Intensity (MFI). The internalised fraction was determined by subtracting the surface-bound EMI-137 from total EMI-137. The percentage of internalised fraction was calculated by dividing the amount of internalised EMI-137 by total-bound EMI-137 multiplied by 100%. Unstained controls were used to define gates and adjust fluorescence compensation.

For data set [10], the system named is OE21. Nature of the data set: Flow cytometry uptake of EMI-137 (c-Met expression level). It counts as cell-based. To be noted: 50 nM, 1 h, 37 °C. On the procedure:
as §3
(§5) Approximately 500,000 cells were seeded in 6-well plates and cultured for 24 h at 37 °C and 5% CO2. Cells were washed with warm PBS and incubated with 50 nM EMI-137 for 1 h at 37 °C and 5% CO2. Subsequently, cells were washed with ice-cold PBS three times prior to sample acquisition via FACS Canto flow cytometer (Becton Dickinson Immunocytometry Systems, Franklin Lakes, NJ, USA) with FACS Diva Software version 4.0.2. The obtained data were analysed using FlowJo software v7.6 (FlowJo, LLC, Ashland, OR, USA). Unstained controls were used to define gates and adjust fluorescence compensation.

Data set [11] deals with HT29. The description is as above. To be noted: 50 nM, 1 h, 37 °C. Format: cell-based. On the procedure:
as §3, §5

The test system of data set [12] is H1975. Described as above. Format: cell-based. As to conditions: 50 nM, 1 h, 37 °C. On the procedure:
as §3, §5

For data set [13], the system named is HEPG2a. The data set is described as above. Format: cell-based. To be noted: HEPG2a (negative control), 50 nM, 1 h, 37 °C. On the procedure:
as §3, §5

Entries after “also recorded” stand apart in the source; their conditions may differ. Bridge positions count the residues as written; N and C are the ends. Ends that are not written are not given here. Peptide text beside a SMILES is read from it. * marks the point of attachment. NOTA = O=C(O)CN1CCN(CC(=O)O)CCN(CC(=O)*)CC1

Consider `CC(=O)N[C@@H](C)C(=O)NCC(=O)N[C@@H](CO)C(=O)N[C@H]1CSSC[C@@H](C(=O)N[C@@H](Cc2ccc(O)cc2)C(=O)N[C@@H](CCC(=O)O)C(=O)N[C@H](C(=O)N[C@@H](CCC(=O)O)C(=O)NCC(=O)N[C@H](C(=O)NCC(=O)NCC(=O)NCC(=O)N[C@@H](CCCCNC(=O)CN2CCN(CC(=O)O)CCN(CC(=O)O)CC2)C(N)=O)[C@@H](C)O)[C@@H](C)O)NC(=O)[C@H](Cc2c[nH]c3ccccc23)NC(=O)[C@@H]2CSSC[C@H](NC(=O)[C@H](Cc3ccc(O)cc3)NC1=O)C(=O)N[C@@H](CO)C(=O)NCC(=O)N1CCC[C@H]1C(=O)N1CCC[C@H]1C(=O)N[C@@H](CCCNC(=N)N)C(=O)N[C@@H](Cc1ccccc1)C(=O)N[C@@H](CCC(=O)O)C(=O)N2` [[^18F]AlF-EMP-105] (Ac-AGSCYCSGPPRFECWCYETEGTGGGK(NOTA)-NH2; disulfide 4-16, 6-14), for which the share remaining at 1 h, 9.9 MBq/mL was found to be 99% in [1], 99% in data set [8] (EDTA (0.02% in 0.5 mM DPBS)), 98% in [8] (PBS) and 97% in data set [8] (RPMI media). The share remaining at 2 h, 9.9 MBq/mL came out at 99% in data set [1], 99% in data set [8] (EDTA (0.02% in 0.5 mM DPBS)), 97% in data set [8] (PBS) and 97% in data set [8] (RPMI media). In addition, the share remaining at 3 h, 9.9 MBq/mL in data set [1] was 98%; in data set [8] (EDTA (0.02% in 0.5 mM DPBS)), 98%; in data set [8] (PBS), 95%; in [8] (RPMI media), 97%. Also, the amount remaining at 4 h, 9.9 MBq/mL in [1] was found to be 97%; in data set [8] (EDTA (0.02% in 0.5 mM DPBS)), 98%; in [8] (PBS), 95%; in data set [8] (RPMI media) it was 92%. Moreover, the “Percentage of [^18F]AlF-EMP-105 Remaining” value is 9.8 ± 12.9% in [2] (kidney, 5 min p.i.); 4.3 ± 4.3% in data set [2] (kidney, 30 min p.i.); 6.2 ± 10.8% in data set [2] (liver, 5 min p.i.); 0.4 ± 0.7% in data set [2] (liver, 30 min p.i.); 98.3 ± 1.1% in data set [2] (plasma, 5 min p.i.); 93.3 ± 7.4% in data set [2] (plasma, 30 min p.i.). Besides, in [2] (urine, 30 min p.i.), the “Percentage of [^18F]AlF-EMP-105 Remaining” value is recorded as 7.9 ± 9.2%. The “Time at which activity peaked, heart, lung and liver” value in [3] (heart, lung and liver) is reported as 1 min. Further, the “Time at which activity peaked, kidneys” value in data set [3] (kidneys) is on record as 2.5 min. For the same compound, the “Change in radioactive uptake when blocked with 100-fold of EMI-137” value in data set [4] was “significant decrease; also recorded: statistically significant decreases”; in data set [5], “significant decrease; also recorded: statistically significant decreases”; in data set [6], “significant decrease; also recorded: statistically significant decreases”; in data set [7] it was “not significant; also recorded: not observed”.
As for “AGSCYCSGPPRFECWCYETEGT-Cy5 (also: cyclic, ring closure not given here) [EMI-137]”, the “Internalisation of EMI-137” value in data set [9] (0, 5, 15 and 30 min at 37 °C after 30 min at 4 °C, glycine wash) is on record as “increased with time”. Further, the “Difference in uptake at 37 °C versus 4 °C” value in data set [9] (50 nM, 30 min) is on record as “the difference was not significant”. In addition, the “Fluorescent uptake of EMI-137” value in [10] was “High uptakes”; in data set [11], “High uptakes”; in data set [12], “High uptakes”; in [13] it was “low uptake”.
